Measurements taken from paper PMC9975939.

Target: T1, untagged NDP52 wild type (human), Q13137
T1 chain: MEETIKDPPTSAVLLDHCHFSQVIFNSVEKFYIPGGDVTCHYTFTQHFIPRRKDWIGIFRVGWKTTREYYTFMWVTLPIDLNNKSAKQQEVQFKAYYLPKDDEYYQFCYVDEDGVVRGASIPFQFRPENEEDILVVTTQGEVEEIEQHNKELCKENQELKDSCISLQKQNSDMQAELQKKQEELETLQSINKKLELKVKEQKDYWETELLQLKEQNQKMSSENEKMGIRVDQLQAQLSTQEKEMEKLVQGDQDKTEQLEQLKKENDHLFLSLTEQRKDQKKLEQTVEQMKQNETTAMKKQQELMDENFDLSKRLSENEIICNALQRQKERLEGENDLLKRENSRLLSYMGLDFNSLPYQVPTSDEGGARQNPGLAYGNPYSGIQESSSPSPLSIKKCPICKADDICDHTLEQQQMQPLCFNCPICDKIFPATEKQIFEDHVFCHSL
Assay: native gel or EMSA; blue native PAGE (4–16% NativePAGE gel, Coomassie G-250) of recombinant NDP52 WT and Mut, immunoblot
Conditions: remark: other sources report otherwise

B1: untagged NDP52 wild type, Q13137 1-446 (natural protein)
chain: T1 chain
Q: Which stoichiometry N does the source give for B1 here?
A: 2
